According to FireProtDB (doi:10.1093/protein/12.8.663):

Conditions: Homo sapiens; pH 2.7; Thermal; DSC; glycine 0.05 M; reversible: yes; whole UniProt chain shown

B1: Lysozyme C wild type, P61626 (protein)
chain: MKALIVLGLVLLSVTVQGKVFERCELARTLKRLGMDGYRGISLANWMCLAKWESGYNTRATNYNAGDRSTDYGIFQINSRYWCNDGKTPGAVNACHLSCSALLQDNIADAVACAKRVVRDPQGIRAWVAWRNRCQNRDVRQYVQGCGV
Tm: 64.9 °C | heat capacity change of unfolding: 1.58 kcal/mol/K | unfolding enthalpy (calorimetric): 114 kcal/mol
